B1: CCDC6 (parent)
chain: FTPPTSLTRAGMSYYNSPGLHVQH
B2: CCDC89 (parent)
chain: LNAELEEKMMQEAEKLKAQGEYSR

Variants of: B1
Test: protein stability index of a GFP-peptide fusion (GPS, HEK-293T) (PSI 1-6); higher = more stable
Conditions: c terminus: a fixed tail appended
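Also: lentivirally expressed fusions sorted by FACS into six bins by GFP to DsRed ratio, PSI derived from sequencing read proportions per bin multiplied by bin number.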

Protein stability index: each site, then its substitutions
S17: E 1.93; C 1.24; L 1.78; H 1.83; K 2.04; Y 1.68; N 1.24; A 2.94; T 1.64; M 1.32; Q 1.57; R 1.76; D 2.09; I 1.7; F 2.95; V 1.86; G 2; W 2.48
P18: A 2.28; I 2.06; G 2.05; K 2.43; F 1.25; C 1.21; W 2.62; Y 2.87; D 1.5; R 1.95; N 1.78; M 1.73; H 1.38; V 2.27; L 1.22; T 2.11; S 1.87; E 2.52; Q 2.16
Q23: R 2.08; K 2.34; C 1.65; G 1.56; V 2.3; M 1.31; T 1.73; H 1.88; P 1.79; D 1.69; L 2; S 1.43; F 1.92; N 1.2; I 2.46; A 1.74; W 3.23; Y 2.06
L20: K 2.25; Y 1.51; Q 2.69; D 2.02; I 2.36; W 2.79; T 2.35; G 2.93; P 1.67; S 1.84; C 1.68; N 2.4; A 2.14; E 2.27; M 1.8; F 1.72; R 2.62; V 2.02; H 1.72
N16: K 1.95; V 2.32; A 2.42; Y 1.77; H 2.12; L 2.09; P 1.89; Q 1.94; M 1.89; E 1.62; G 1.53; C 2.06; I 1.98; D 2.33; R 1.42; T 2.17; S 1.65; F 1.33
H21: R 1.75; L 1.81; F 1.61; T 1.91; M 1.6; G 2.2; C 1.81; V 2.58; Q 2.54; S 2.13; K 1.68; E 2.75; Y 1.25; A 2.11; D 1.47; P 1.76; I 1.61; N 1.97; W 2.36
V22: F 1.51; E 2.18; T 1.97; Y 2.32; A 1.7; Q 1.56; M 1.64; I 2.14; K 2.25; N 1.98; L 1.95; R 2.01; W 1.22; G 2.01; H 1.87; C 1.51; S 1.74; D 1.86
Y15: W 3.27
G19: D 2.22; E 2.1; V 3.1; W 1.8; H 1.96; I 1.56; K 2.27; Y 1.96; N 2.09; M 2.08; A 1.98; T 1.86; F 2.45; L 1.66; R 2.13; S 1.73; Q 2.87; C 1.98
H24: V 1.67; G 1.77; M 2.9; L 1.63; E 1.84; N 1.15; P 2.24; T 1.85; C 1.66; F 2.77; Y 1.19; Q 1.86; I 3.53; K 2.7; W 1.38; R 1.73; A 1.56; S 1.8; D 1.82

Variants of: B2
Test: as above
Conditions: c terminus: a fixed tail appended

Protein stability index: each site, then its substitutions
M10: L 5.46; E 5.39; R 5.25; K 5.08; A 5.55; D 5.08; H 5.11; Y 5.15; S 5.65; T 5.42; N 5.34; W 4.7; V 5.13
L1: F 5.18; S 5.21; P 5.4; K 5.3; R 5.17; C 5.32; N 4.97; T 4.98; D 5.54; Q 5.11; M 5.2; I 4.69; W 4.8; Y 4.95; E 4.91; V 4.41; H 4.89; A 5.74
K8: I 4.25; N 4.49; W 4.5; R 4.98; S 3.82; Y 4.46; A 4.9; L 5.19; C 5.15; D 4.78; P 5.12; M 4.92; V 4.86; Q 5.02; H 5.36
Q11: D 5.7; K 4.94; F 4.14; I 4.96; E 5.55; N 5.04; C 5.38; L 3.99; M 4.18; P 4.75; G 5.18; H 4.84
M9: K 3.98; P 5.53; W 5.04; R 5.12; G 5.05; F 4.97; D 4.89; T 5.23; Q 4.79; A 5.2; L 3.96; C 5.52; I 5.12; N 5.1; H 5.95
E7: H 4.5; M 4.54; G 4.35; R 3.8; I 4.64; Y 4.61; A 4.87; V 5; S 4.01; T 4.74; Q 4.18; C 5; D 4.81; F 4.97
N2: W 2.71; M 4.99; H 5.42; Q 5.63; D 3.11; G 5.14; P 4.82; S 5.11; I 4.79; R 3.94; A 4.98; F 4.17; T 5.32
L5: I 4.88; H 5.19; E 5.46; K 4.53; Y 4.33; T 5.47; S 5.38; R 4.7; F 4.73; N 5.44; A 4.86; D 4.71; M 5.21; W 4.71; V 5.09; P 5.58; Q 5.55
E6: W 3.56; G 5.15; Q 4.65; H 4.79; L 2.68; N 4.71; C 4.69; T 3.27; S 4.96; V 3.04; M 4.42; I 4.08; K 4.64; P 4.8; F 3.39; R 4.36
E4: D 4.94; I 4.6; C 3.98; P 3.94; S 5.16; L 4.56; F 4.47; Y 3.74; T 4.3; H 4.4; R 4.57; M 3.91; W 3.12; K 3.96; Q 4.76; V 3.95
A3: I 4.9; R 4.94; L 5.02; E 4.45; T 5.63; P 4.76; D 5.08; C 4.69; G 3.57; N 3.89; S 4.96; W 4.58; K 5.28; H 4.71; V 5.13; Y 4.2; Q 4.97; F 4.57

Reference: the supplement of paper PMC10567573
